{"source": "paper PMC4013717", "about": "“AFF4 binding to Tat-P-TEFb indirectly stimulates TAR recognition of super elongation complexes at the HIV promoter” (eLife, 2014)", "key": {"[1]": {"tested_on": "Cyclin T1 (P-TEFb subunit);CDK9 (P-TEFb subunit);HIV-1 Tat;AFF4 32-67 (human;not given;HIV-1;not given)", "test": "EMSA"}, "[2]": {"tested_on": "Cyclin T1 (P-TEFb subunit);CDK9 (P-TEFb subunit);HIV-1 Tat;AFF4 2-98 (human;not given;HIV-1;not given)", "test": "EMSA"}, "[3]": {"tested_on": "Cyclin T1 (P-TEFb subunit);CDK9 (P-TEFb subunit);HIV-1 Tat;AFF4 2-73 (human;not given;HIV-1;not given)", "test": "EMSA"}, "human cyclin T1 1–264": {"target": "T1, human cyclin T1 1–264 (human, UniProt O60563 1-264)", "T1 construct": "human cyclin T1, residues 1-264; also called CycT1", "T1 sequence (O60563 1-264)": "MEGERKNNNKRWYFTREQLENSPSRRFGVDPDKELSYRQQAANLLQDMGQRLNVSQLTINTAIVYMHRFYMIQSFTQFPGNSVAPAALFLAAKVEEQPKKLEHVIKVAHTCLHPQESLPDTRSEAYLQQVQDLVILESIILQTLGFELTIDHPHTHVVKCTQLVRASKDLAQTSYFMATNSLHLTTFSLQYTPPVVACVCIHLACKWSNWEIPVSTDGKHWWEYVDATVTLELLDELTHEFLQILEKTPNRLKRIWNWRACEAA", "test": "crystal structure; quaternary complex of Tat 1–57, AFF4 2–73, CDK9 1–330 and CycT1 1–264; 3.0 Å; three complexes in the a.u.; crystals from 2.4 M sodium formate, 10 mM MgCl2 at 18°C", "conditions": "both partners purified"}, "human CDK9 1–330": {"target": "T2, human CDK9 1–330 (human, UniProt P50750 1-330)", "T2 construct": "human CDK9, residues 1-330", "T2 sequence (P50750 1-330)": "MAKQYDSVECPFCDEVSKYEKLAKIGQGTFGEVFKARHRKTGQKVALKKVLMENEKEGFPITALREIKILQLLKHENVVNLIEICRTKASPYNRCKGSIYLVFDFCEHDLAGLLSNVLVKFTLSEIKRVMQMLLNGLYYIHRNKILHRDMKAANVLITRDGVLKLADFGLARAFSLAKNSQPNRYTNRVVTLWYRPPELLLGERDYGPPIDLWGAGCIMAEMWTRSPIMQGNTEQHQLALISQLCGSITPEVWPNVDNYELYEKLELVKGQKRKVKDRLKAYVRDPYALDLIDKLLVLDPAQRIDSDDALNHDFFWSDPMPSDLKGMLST", "test": "crystal structure; quaternary complex of Tat 1–57, AFF4 2–73, CDK9 1–330 and CycT1 1–264; 3.0 Å; three complexes in the a.u.; crystals from 2.4 M sodium formate, 10 mM MgCl2 at 18°C", "conditions": "both partners purified"}, "[4]": {"target": "Tat-P-TEFb complex (HIV-1 Tat 1–57, CDK9 1–330, cyclin T1 1–264) (HIV-1 | human, UniProt P04608 1-57; P50750 1-330; O60563 1-264, N-terminally acetylated (N-acetyl group on M1))", "test": "cell-based or functional assay"}, "[5]": {"target": "Tat-P-TEFb complex (HIV-1 Tat 1–57, CDK9 1–330, cyclin T1 1–264) (HIV-1 | human) (UniProt P04608)"}}, "data": [{"molecule": "TAR RNA (nucleotides 18-44)", "values": [{"measurement": "K half", "setting": "[1]", "result": 1.1, "unit": "nM"}, {"measurement": "K half", "setting": "[2]", "result": 1.1, "unit": "nM"}, {"measurement": "K half", "setting": "[3]", "result": 1.1, "unit": "nM"}]}, {"molecule": "AFF4 fragment 2–73 (domain or fragment, UniProt Q9UHB7 2-73, looked up, AFF4 (SEC scaffold), residues 2-73; The His-tag is TEV-protease-cleavable; also called AFF4_(2–73); source: E. coli, purified) NREDRNVLRMKERERRNQEIQQGEDAFPPSSPLFAEPYKVTSKEDKLSSRIQSMLGNYDEMKDFIGDRSIPK", "values": [{"measurement": "binding result", "setting": "human cyclin T1 1–264", "result": "binds"}, {"measurement": "binding result", "setting": "human CDK9 1–330", "result": "binds"}, {"measurement": "EMSA with 32P-labeled TAR RNA and Tat-P-TEFb in the presence of excess AFF4 2–73: increase of the affinity for TAR", "setting": "[4]", "result": 30, "unit": "fold"}]}, {"molecule": "AFF4 fragment 2–98 (domain or fragment) NREDRNVLRMKERERRNQEIQQGEDAFPPSSPLFAEPYKVTSKEDKLSSRIQSMLGNYDEMKDFIGDRSIPKLVAIPKPTVPPSADEKSNPNFFEQR", "values": [{"measurement": "EMSA with 32P-labeled TAR RNA and Tat-P-TEFb in the presence of excess AFF4 2–98: increase of the affinity for TAR", "setting": "[5]", "result": 30, "unit": "fold"}]}, {"molecule": "SPLFAEPYKVTSKEDKLSSRIQSMLGNYDEMKDFIG (domain or fragment)", "note": "[AFF4 fragment 32–67]", "values": [{"measurement": "EMSA with 32P-labeled TAR RNA and Tat-P-TEFb in the presence of excess AFF4 32–67: increase of the affinity for TAR", "setting": "[5]", "result": 30, "unit": "fold"}]}]}
